Data reported in patent publication US20180274043A1.

Target: human HER3 receptor (human) (UniProt P21860)
Test: cell-based or functional assay

neuregulin-1 (from UniProt Q02297 177-241) (ligand)
fold induction of 6×JNK-Luc reporter activity at 100 ng/ml NRG1: 4.2 fold | fold induction of JNK-Luc (3 copies of AP-1) reporter activity at 100 ng/ml NRG1: 2.6 fold
